This is an account of results in US20250163167A1 (SYNTHEKINE, published 2025).

The chains are these.
T1: human IL-10 receptor (hIL-10R alpha and beta chains) on HEK-Blue IL-10 reporter cells (human, UniProt Q13651 22-578; Q08334 20-325)
T1 sequence 1: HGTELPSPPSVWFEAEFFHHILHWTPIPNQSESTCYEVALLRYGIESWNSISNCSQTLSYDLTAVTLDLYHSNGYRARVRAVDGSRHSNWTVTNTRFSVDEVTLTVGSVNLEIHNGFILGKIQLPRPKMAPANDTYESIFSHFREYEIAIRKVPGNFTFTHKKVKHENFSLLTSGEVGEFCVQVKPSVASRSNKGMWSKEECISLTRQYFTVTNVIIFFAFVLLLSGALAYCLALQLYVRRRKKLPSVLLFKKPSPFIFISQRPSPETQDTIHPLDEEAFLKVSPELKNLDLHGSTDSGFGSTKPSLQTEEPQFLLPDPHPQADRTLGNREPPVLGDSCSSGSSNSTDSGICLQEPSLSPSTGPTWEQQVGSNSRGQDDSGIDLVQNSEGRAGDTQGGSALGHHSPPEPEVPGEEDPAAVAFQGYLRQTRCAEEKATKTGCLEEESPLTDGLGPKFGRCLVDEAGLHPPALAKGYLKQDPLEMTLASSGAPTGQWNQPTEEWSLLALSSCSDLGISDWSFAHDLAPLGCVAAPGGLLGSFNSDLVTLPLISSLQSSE
T1 sequence 2: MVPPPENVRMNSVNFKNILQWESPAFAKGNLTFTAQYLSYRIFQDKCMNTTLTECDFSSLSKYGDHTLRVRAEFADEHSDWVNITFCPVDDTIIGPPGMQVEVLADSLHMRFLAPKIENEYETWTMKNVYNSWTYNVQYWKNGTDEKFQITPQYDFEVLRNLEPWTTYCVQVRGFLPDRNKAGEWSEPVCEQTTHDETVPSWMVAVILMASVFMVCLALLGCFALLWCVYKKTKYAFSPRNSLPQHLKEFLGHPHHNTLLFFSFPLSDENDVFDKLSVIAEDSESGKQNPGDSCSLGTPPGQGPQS

B1: IL10R binding molecule of SEQ ID NO: 296 (bispecific antibody)
chain: QVQLQESGGGSVQAGGSLRLSCGASGYTYSSYCMGWFRQVPGKEREGVAVIDSDGSTSYADSVKGRFTISKDNGKNTLYLQMNSLKPEDTAMYYCAADLGHYRPPCGVLYLGMDYWGKGTQVTVSSGGGSQVQLQESGGGSVQAGGSLRLSCAASGYSYSSYCMGWFRQAPGKEREGVATIDSDGMTRYADSVKGRFTISKDNAKNTLYLQMNSLKPEDTAMYYCAAPLYDCDSGAVGRNPPYWGQGTQVTVSSASHHHHHH
B2: IL10R binding molecule of SEQ ID NO: 288 (bispecific antibody)
chain: QVQLQESGGGSVQAGGSLRLSCTVSGYTYSSNCMGWFRQAPGKEREGVATIYTGGGNTYYADSVKGRFTISQDNAKNTVYLQMNNLKPEDTAMYYCAAEPLSRVYGGSCPTPTFDYWGQGTQVTVSSGGGSQVQLQESGGGSVEAGGSLRLSCAASGYTHSSYCMGWFRQAPGKEREGVAAIDVDGSTTYADSVKGRFTISKDNAKNTLYLQMNSLKPEDTGMYYCAAEFADCSSNYFLPPGAVRYWGQGTQVTVSSASHHHHHH
B3: IL10R binding molecule of SEQ ID NO: 292 (bispecific antibody)
chain: QVQLQESGGGSVQAGGSLRLSCGASGYTYSSYCMGWFRQVPGKEREGVAVIDSDGSTSYADSVKGRFTISKDNGKNTLYLQMNSLKPEDTAMYYCAADLGHYRPPCGVLYLGMDYWGKGTQVTVSSGGGSQVQLQESGGGSVQAGGSLRLSCAASGYTYSSYCMGWFRQAPGKEREGVAHIDSDGSTSYADSVKGRFTISKDNAKNTLYLQMNSLKPEDTAMYYCAADPIPGPGYCDGGPNKYWGQGTQVTVSSASHHHHHH
B4: IL10R binding molecule of SEQ ID NO: 299 (bispecific antibody)
chain: QVQLQESGGGSVQAGGSLRLSCAASGYSNCSYDMTWYRQAPGKEREFVSAIHSDGSTRYADSVKGRFFISQDNAKNTVYLQMNSLKPEDTAMYYCKTDPLHCRAHGGSWYSVRANYWGQGTQVTVSSGGGSQVQLQESGGGSVQAGGSLRLSCAASGYTYSSYCMGWFRQAPGKEREGVAHIDSDGSTSYADSVKGRFTISKDNAKNTLYLQMNSLKPEDTAMYYCAADPIPGPGYCDGGPNKYWGQGTQVTVSSASHHHHHH
B5: IL10R binding molecule of SEQ ID NO: 294 (bispecific antibody)
chain: QVQLQESGGGSVQAGGSLRLSCGASGYTYSSYCMGWFRQVPGKEREGVAVIDSDGSTSYADSVKGRFTISKDNGKNTLYLQMNSLKPEDTAMYYCAADLGHYRPPCGVLYLGMDYWGKGTQVTVSSGGGSQVQLQESGGGSVQAGGSLRLSCTVSRYTASVNYMGWFRQAPGKEREGVATIFTGAGTTYYANSVKGRFTISRDNAKNTAYLQMNSLKPEDTAIYYCAVDFRGGLLYRPAYEYTYRGQGTQVTVSSASHHHHHH
B6: IL10R binding molecule of SEQ ID NO: 291 (bispecific antibody)
chain: QVQLQESGGGSVQAGGSLRLSCGASGYTYSSYCMGWFRQVPGKEREGVAVIDSDGSTSYADSVKGRFTISKDNGKNTLYLQMNSLKPEDTAMYYCAADLGHYRPPCGVLYLGMDYWGKGTQVTVSSGGGSQVQLQESGGGSVQAGGSLRLSCAASGYTYSSGCMGWFRQAPGKEREAVAAINSDGSTSYADSVKGRFTISKDNAKNTLYLQMNSLKPEDTAMYYCAAEPYCSGGYPRWSVAEFGYWGQGTQVTVSSASHHHHHH
B7: IL10R binding molecule of SEQ ID NO: 300 (bispecific antibody)
chain: QVQLQESGGGSVQAGGSLRLSCAASGYSNCSYDMTWYRQAPGKEREFVSAIHSDGSTRYADSVKGRFFISQDNAKNTVYLQMNSLKPEDTAMYYCKTDPLHCRAHGGSWYSVRANYWGQGTQVTVSSGGGSQVQLQESGGGSVQAGGSLRLSCAASRYTYNSYCMGWFRQAPGKEREGVATIDSDGMTRYADSVKGRFTISKDNAKNTLYLQMNSLKPEDTAMYYCAADADCTIAAMTTNPLGQGTQVTVSSASHHHHHH
B8: IL10R binding molecule of SEQ ID NO: 258 (bispecific antibody)
chain: QVQLQESGGGSVQAGGSLRLSCAASRYLYSIDYMAWFRQSPGKEREPVAVIYTASGATFYPDSVKGRFTISQDNAKMTVYLQMNSLKSEDTAMYYCAAVRKTDSYLFDAQSFTYWGQGTQVTVSSGGGSQVQLQESGGGSVQAGGSLRLSCAASRYTYNSYCMGWFRQAPGKEREGVATIDSDGMTRYADSVKGRFTISKDNAKNTLYLQMNSLKPEDTAMYYCAADADCTIAAMTTNPLGQGTQVTVSSASHHHHHH
B9: IL10R binding molecule of SEQ ID NO: 290 (bispecific antibody)
chain: QVQLQESGGGSVQAGGSLRLSCTVSGYTYSSNCMGWFRQAPGKEREGVATIYTGGGNTYYADSVKGRFTISQDNAKNTVYLQMNNLKPEDTAMYYCAAEPLSRVYGGSCPTPTFDYWGQGTQVTVSSGGGSQVQLQESGGGSVQTGGSLRLSCAASGYTYLRGCMGWFRQAPGKEREGVAVMDVVGDRRSYIDSVKGRFTISRDNAANSVYLQMDNLKPEDTAMYYCTAGPNCVGWRSGLDYWGQGTQVTVSSASHHHHHH
B10: IL10R binding molecule of SEQ ID NO: 297 (bispecific antibody)
chain: QVQLQESGGGSVQAGGSLRLSCGASGYTYSSYCMGWFRQVPGKEREGVAVIDSDGSTSYADSVKGRFTISKDNGKNTLYLQMNSLKPEDTAMYYCAADLGHYRPPCGVLYLGMDYWGKGTQVTVSSGGGSQVQLQESGGGSVQTGGSLRLSCAASGYTYLRGCMGWFRQAPGKEREGVAVMDVVGDRRSYIDSVKGRFTISRDNAANSVYLQMDNLKPEDTAMYYCTAGPNCVGWRSGLDYWGQGTQVTVSSASHHHHHH
B11: IL10R binding molecule of SEQ ID NO: 289 (bispecific antibody)
chain: QVQLQESGGGSVQAGGSLRLSCTVSGYTYSSNCMGWFRQAPGKEREGVATIYTGGGNTYYADSVKGRFTISQDNAKNTVYLQMNNLKPEDTAMYYCAAEPLSRVYGGSCPTPTFDYWGQGTQVTVSSGGGSQVQLQESGGGSVQAGGSLRLSCAASGYSYSSYCMGWFRQAPGKEREGVATIDSDGMTRYADSVKGRFTISKDNAKNTLYLQMNSLKPEDTAMYYCAAPLYDCDSGAVGRNPPYWGQGTQVTVSSASHHHHHH
B12: IL10R binding molecule of SEQ ID NO: 295 (bispecific antibody)
chain: QVQLQESGGGSVQAGGSLRLSCGASGYTYSSYCMGWFRQVPGKEREGVAVIDSDGSTSYADSVKGRFTISKDNGKNTLYLQMNSLKPEDTAMYYCAADLGHYRPPCGVLYLGMDYWGKGTQVTVSSGGGSQVQLQESGGGSVEAGGSLRLSCAASGYTHSSYCMGWFRQAPGKEREGVAAIDVDGSTTYADSVKGRFTISKDNAKNTLYLQMNSLKPEDTGMYYCAAEFADCSSNYFLPPGAVRYWGQGTQVTVSSASHHHHHH
B13: IL10R binding molecule of SEQ ID NO: 301 (bispecific antibody)
chain: QVQLQESGGGSVQAGGSLRLSCAASGYSNCSYDMTWYRQAPGKEREFVSAIHSDGSTRYADSVKGRFFISQDNAKNTVYLQMNSLKPEDTAMYYCKTDPLHCRAHGGSWYSVRANYWGQGTQVTVSSGGGSQVQLQESGGGSVQAGGSLRLSCTVSRYTASVNYMGWFRQAPGKEREGVATIFTGAGTTYYANSVKGRFTISRDNAKNTAYLQMNSLKPEDTAIYYCAVDFRGGLLYRPAYEYTYRGQGTQVTVSSASHHHHHH
B14: IL10R binding molecule of SEQ ID NO: 293 (bispecific antibody)
chain: QVQLQESGGGSVQAGGSLRLSCGASGYTYSSYCMGWFRQVPGKEREGVAVIDSDGSTSYADSVKGRFTISKDNGKNTLYLQMNSLKPEDTAMYYCAADLGHYRPPCGVLYLGMDYWGKGTQVTVSSGGGSQVQLQESGGGSVQAGGSLRLSCAASRYTYNSYCMGWFRQAPGKEREGVATIDSDGMTRYADSVKGRFTISKDNAKNTLYLQMNSLKPEDTAMYYCAADADCTIAAMTTNPLGQGTQVTVSSASHHHHHH
B15: IL10R binding molecule of SEQ ID NO: 298 (bispecific antibody)
chain: QVQLQESGGGSVQAGGSLRLSCAASGYSNCSYDMTWYRQAPGKEREFVSAIHSDGSTRYADSVKGRFFISQDNAKNTVYLQMNSLKPEDTAMYYCKTDPLHCRAHGGSWYSVRANYWGQGTQVTVSSGGGSQVQLQESGGGSVQAGGSLRLSCAASGYTYSSGCMGWFRQAPGKEREAVAAINSDGSTSYADSVKGRFTISKDNAKNTLYLQMNSLKPEDTAMYYCAAEPYCSGGYPRWSVAEFGYWGQGTQVTVSSASHHHHHH

In this assay the target is T1, human IL-10 receptor (hIL-10R alpha and …). Kind of assay: cell-based or functional assay.
With B1, the “Abs 630 (25 nM)” value is 0.54 Abs 630 and the “Abs 630 (100 nM)” value is 0.38 Abs 630.
The like results for B2 were, in that order, 0.5 Abs 630 and 0.44 Abs 630.
For B3, the “Abs 630 (25 nM)” value is 0.78 Abs 630 and the “Abs 630 (100 nM)” value stood at 0.47 Abs 630.
For B4 the same measures were 0.47 Abs 630 and 0.37 Abs 630.
Turning to B5, the “Abs 630 (25 nM)” value was found to be 0.49 Abs 630 and the “Abs 630 (100 nM)” value amounted to 0.39 Abs 630.
The like results for B6 were, in that order, 1.73 Abs 630 and 0.59 Abs 630.
With B7, the “Abs 630 (25 nM)” value turned out to be 2.08 Abs 630 and the “Abs 630 (100 nM)” value stood at 2.11 Abs 630.
For B8, the “Abs 630 (25 nM)” value is 0.49 Abs 630 and the “Abs 630 (100 nM)” value was found to be 0.38 Abs 630.
For B9, the “Abs 630 (25 nM)” value was found to be 0.49 Abs 630 and the “Abs 630 (100 nM)” value came to 0.37 Abs 630.
Turning to B10, the “Abs 630 (25 nM)” value came out at 0.46 Abs 630 and the “Abs 630 (100 nM)” value is 0.36 Abs 630.
As for B11, the “Abs 630 (25 nM)” value was 0.48 Abs 630 and the “Abs 630 (100 nM)” value stood at 0.39 Abs 630.
As to B12, the “Abs 630 (25 nM)” value was 0.72 Abs 630 and the “Abs 630 (100 nM)” value came out at 0.46 Abs 630.
For B13 the same measures were 2.05 Abs 630 and 1.91 Abs 630.
The like results for B14 were, in that order, 0.54 Abs 630 and 0.43 Abs 630.
As for B15, the “Abs 630 (25 nM)” value is 0.84 Abs 630 and the “Abs 630 (100 nM)” value was 0.38 Abs 630.
